Measured values from patent US20230405140A1, “ANTI-CD56 ANTIBODY-DRUG CONJUGATES AND THEIR USE IN THERAPY” (MCSAF INSIDE ONCOLOGY, priority 2020, published 2023).

What was measured:
[1] = system: small cell lung carcinoma; details: phase II, in combination with chemotherapy (cisplatin-etoposide); in words; cited from earlier work
[2] = system: CD56− cells (CRISPR-MCC cell lines WaGa and MKL-1); test: XTT assay, summary over CD56- CRISPR-MCC cell lines; format: cell-based; details: at high doses; in words
Description: (§1) To evaluate cell viability and cellular metabolic activity, XTT assays were performed according to standard protocols. WaGa, PeTa, H69, H209, H660 cell lines were plated in 3 replicates in a 96-well plate with 5.10^4 cells/well. […] Untreated cells were used as viability reference. Cells treated with 1% Triton X100 were used as cell death positive control. After 4 days, 25 μL XTT reagent at 1 mg/mL (Alfa Aesar, thermo Fisher) with N-methyl dibenzopyrazine methyl sulfate (PMS) activator (25 μM) was added per well and absorbance was measured at 450 nm after 4 h incubation. Absorbance at 620 nm was used as a reference. Three independent experiments have been performed.

[3] = system: primary NK cells; test: Killing effect on primary NK cells (Annexin V / 7-AAD flow cytometry); format: cell-based, human; details: for Killing effect on primary NK cells (ADCC): after 4 h of incubation, in words; for Killing effect on primary NK cells: after 4 days of incubation
Description: (§2) Primary natural killer cells (NK) and monocytes were obtained from blood of healthy adult volunteers at the Etablissement Français du Sang, according to institutional research protection guidelines agreement N° CA-REC-2019-188, Centre Val de Loire, France. Ficoll density centrifugation step (Eurobio) was performed to isolate peripheral blood mononuclear cells (PBMC).
NK cells were isolated from PBMC by negative selection (NK cell isolation kit human, Miltenyi Biotec) with purity higher than 95%. NK cells were cultured for up to 36 h in RPMI 1640 supplemented with 10% FCS, 1% penicillin and streptomycin, 1% L-glutamine and 100 UI/mL IL-2 at 37° C., 5% CO2 at 1.10^6 cells/mL.

[4] = system: H69; test: XTT assay, ADC-mediated cytotoxicity; format: cell-based; details: 4 days, read-out: H69 n = 3 IC50
Description: as §1

[5] = system: PeTa; test: XTT assay, ADC-mediated cytotoxicity; format: cell-based; details: 4 days, read-out: PeTa n = 3 IC50
Description: as §1

[6] = system: H209; test: XTT assay, ADC-mediated cytotoxicity; format: cell-based; details: 4 days, read-out: H209 n = 3 IC50
Description: as §1

[7] = system: WaGa CRISPR CD56; test: XTT assay, ADC-mediated cytotoxicity; format: cell-based; details: 4 days, CD56− cells, read-out: WaGa CRISPR CD56 n = 3 IC50
Description: as §1

[8] = system: WaGa; test: XTT assay, ADC-mediated cytotoxicity; format: cell-based; details: 4 days, read-out: WaGa n = 3 IC50
Description: as §1

[9] = system: neutrophils; test: Killing effect on neutrophils (Annexin V / 7-AAD flow cytometry); format: cell-based, human; details: after 4 h of incubation; CD56 negative cells; at high concentration
Excerpt: The neutrophils were isolated directly from whole blood of healthy adult volunteers at the Etablissement Français du Sang, according to institutional research protection guidelines agreement N° CA-REC-2019-188, Centre Val de Loire, France, by negative selection, using the kit (MACSxpress® Whole Blood Neutrophil Isolation Kit, MiltenyBiotech™). The neutrophils were used directly following their isolation and then resuspended in HBSS buffer (1X) (Gibco 15266355), at 1×10^6 cells/mL.
(§3) 5% of CO2. […] All products were tested after 4 days treatment on NK cells and 4 h on monocytes and neutrophils.

[10] = system: solid tumors expressing CD56; details: several phase I studies; in words; cited from earlier work
[11] = system: MKL-1 CRISPR CD56; test: XTT assay, ADC-mediated cytotoxicity; format: cell-based; details: 4 days, CD56− cells, read-out: MKL-1 CRISPR CD56 n = 3 IC50
[12] = system: monocytes; test: Killing effect on monocytes (Annexin V / 7-AAD flow cytometry); format: cell-based, human; details: after 4 h of incubation; in words
Description: as §2
Monocytes were isolated from PBMC by positive selection using anti-CD14 MicroBeads (Miltenyi Biotec) according to manufacturer recommendations. Monocytes were cultured in serum-free X-VIVO-15 medium (Lonza) at 1.10^6 cells/mL.
as §3

[13] = system: CD56+ cell lines (WaGa, PeTa, MKL-1, H69, H209, H660); test: Flow cytometry binding of Alexa Fluor 750 labelled antibodies, CD56+ cell lines; details: 4° C., 30 minutes, in words
Description: (§4) Binding levels of L and mAb-003 have been evaluated on several tumor cell lines: MCC (WaGa, PeTa, MKL-1), SCLC (H69, H209) and prostate cancers (H660) as well as WaGa, PeTa and MKL-1 CD56-knocked out using CRISPR technology.
(§5) The L and mAb-003 were labelled with Alexa Fluor 750 (Alexa Fluor 750 Protein Labelling Kit, Invitrogen) to allow their detection by flow cytometry. The labelled antibodies were incubated with 1.10^5 cells at 4° C. for 30 minutes, then cells were washed twice with PBS supplemented with 1% FCS, and the binding was analysed by Flow cytometry on Cytoflex.

[14] = system: CD56− cells (CRISPR WaGa, PeTa, MKL-1); test: Flow cytometry binding of Alexa Fluor 750 labelled antibodies, CD56- CRISPR cell lines; details: 4° C., 30 minutes, in words
Description: as §4, §5

[15] = system: WaGa xenograft; test: Efficacy in vivo, WaGa xenograft, ADC 5 mg/kg twice a week; parameters: species or system NOD/SCID mice; details: 5 mg/kg IV twice a week; day 30
Description: Xenograft mice model: eighteen 7-week-old females NOD/SCID (Janvier Labs) mice were maintained under aseptic conditions. All animal procedures were approved by local ethics committee (Apafis #26772-2020072715262737 v2). WaGa cell line was used for tumor induction, as previously described in [9]. Mice received one subcutaneous injection of 1.10^7 WaGa cells with 10% matrigel on the back. General state and weight were monitored twice a week during the procedure. Tumor volume was measured with a caliper and tumor volume was calculated according to the formula: π/6×width×length×height. […] Mice were sacrificed 30 days after inclusion or when reaching one predefined endpoint (tumor ulceration, weight loss >20%, or prostration). Tumors, heart, lungs, spleen, and liver were removed for macroscopic examination. After dissection, tumor weight and volume were assessed. To detect metastatic spread and potential toxicity of ADCs, whole tumors and organs (heart, lungs, spleen, and liver), were formalin-fixed and paraffin embedded for microscopic evaluation to evaluate architecture changes, inflammatory infiltrate, necrosis, vascular changes, fibrosis and liver steatosis.

B1: LM: Lorvotuzumab Mertansine, anti-CD56 ADC coupled to mertansine (DM1) (conjugate, chains of the INN, looked up)
VH: QVQLVESGGGVVQPGRSLRLSCAASGFTFSSFGMHWVRQAPGKGLEWVAYISSGSFTIYYADSVKGRFTISRDNSKNTLYLQMNSLRAEDTAVYYCARMRKGYAMDYWGQGTLVTVSS
VL: DVVMTQSPLSLPVTLGQPASISCRSSQIIIHSDGNTYLEWFQQRPGQSPRRLIYKVSNRFSGVPDRFSGSGSGTDFTLKISRVEAEDVGVYYCFQGSHVPHTFGQGTKVEIK
modifications: mertansine (DM1)
Survival benefit [1]: did not demonstrate any survival benefit
Cytotoxicity on CD56− cells [2]: nonspecific cytotoxicity
Killing effect on primary NK cells (ADCC) [3]: ADCC killing effect was observed
IC50 [4]: 62.6 nM
IC50 [5]: 26.9 nM
IC50 [6]: 100 nM
IC50 [7]: 75.6 nM
IC50 [8]: 75.6 nM
Killing effect towards neutrophils [9]: around 15%
Tolerance [10]: acceptable tolerance
IC50 [11]: 74.1 nM

B2: LM-002: Deglycosylated Lorvotuzumab Mertansine: treated with PNGase F to remove the glycosylation (conjugate, chains of the INN, looked up)
VH: QVQLVESGGGVVQPGRSLRLSCAASGFTFSSFGMHWVRQAPGKGLEWVAYISSGSFTIYYADSVKGRFTISRDNSKNTLYLQMNSLRAEDTAVYYCARMRKGYAMDYWGQGTLVTVSS
VL: DVVMTQSPLSLPVTLGQPASISCRSSQIIIHSDGNTYLEWFQQRPGQSPRRLIYKVSNRFSGVPDRFSGSGSGTDFTLKISRVEAEDVGVYYCFQGSHVPHTFGQGTKVEIK
modifications: mertansine; deglycosylated
notes: Deglycosylated Lorvotuzumab Mertansine: treated with PNGase F to remove the glycosylation
Killing effect on monocytes [12]: negligible killing effect

B3: L-002: Deglycosylated Lorvotuzumab: treated with PNGase F to remove the glycosylation at Asn297 (antibody, chains of the INN, looked up, V domains shown)
VH: QVQLVESGGGVVQPGRSLRLSCAASGFTFSSFGMHWVRQAPGKGLEWVAYISSGSFTIYYADSVKGRFTISRDNSKNTLYLQMNSLRAEDTAVYYCARMRKGYAMDYWGQGTLVTVSS
VL: DVVMTQSPLSLPVTLGQPASISCRSSQIIIHSDGNTYLEWFQQRPGQSPRRLIYKVSNRFSGVPDRFSGSGSGTDFTLKISRVEAEDVGVYYCFQGSHVPHTFGQGTKVEIK
modifications: deglycosylated with PNGase F
notes: Deglycosylated Lorvotuzumab: treated with PNGase F to remove the glycosylation at Asn297
Killing effect on primary NK cells [3]: 20%

B4: L: Lorvotuzumab (antibody, chains of the INN, looked up, V domains shown)
VH: QVQLVESGGGVVQPGRSLRLSCAASGFTFSSFGMHWVRQAPGKGLEWVAYISSGSFTIYYADSVKGRFTISRDNSKNTLYLQMNSLRAEDTAVYYCARMRKGYAMDYWGQGTLVTVSS
VL: DVVMTQSPLSLPVTLGQPASISCRSSQIIIHSDGNTYLEWFQQRPGQSPRRLIYKVSNRFSGVPDRFSGSGSGTDFTLKISRVEAEDVGVYYCFQGSHVPHTFGQGTKVEIK
Binding to CD56+ cells [13]: lower binding level
Killing effect on primary NK cells (ADCC) [3]: ADCC killing effect was observed
Killing effect on primary NK cells [3]: 40%
Binding to CD56− cells (CRISPR cells) [14]: binding to CD56− cells
Killing effect towards neutrophils [9]: about 15%

B5: MF-L-MMAE: L conjugated to MMAE with 6-(2,6-bis(bromomethyl)pyridin-4-yl)amido-N-hexanamide-valine-citrulline-p-aminobenzoyl carbamate (conjugate, chains of the INN, looked up)
VH: QVQLVESGGGVVQPGRSLRLSCAASGFTFSSFGMHWVRQAPGKGLEWVAYISSGSFTIYYADSVKGRFTISRDNSKNTLYLQMNSLRAEDTAVYYCARMRKGYAMDYWGQGTLVTVSS
VL: DVVMTQSPLSLPVTLGQPASISCRSSQIIIHSDGNTYLEWFQQRPGQSPRRLIYKVSNRFSGVPDRFSGSGSGTDFTLKISRVEAEDVGVYYCFQGSHVPHTFGQGTKVEIK
modifications: MMAE via val-cit PAB linker
notes: L conjugated to MMAE with 6-(2,6-bis(bromomethyl)pyridin-4-yl)amido-N-hexanamide-valine-citrulline-p-aminobenzoyl carbamate
Mean end tumor weight [15]: 0.08 g
